# Data as given in article PMC8373123.
# Molecular target: human NPC1L1 (Niemann-Pick C1-like 1), wild type, C-terminal Flag tag (human) (UniProt Q9UHC9)
# Experiment: cryo-EM structure
substance,measurement,value
"human NPC1L1 (Niemann-Pick C1-like 1), wild type, C-terminal Flag tag (from UniProt Q9UHC9-2 22-1332) (natural protein)",stoichiometry N,2
